Earlier results on two substances are cited in patent US6268341A, “Expression of urokinase plasminogen activator inhibitors” (Chiron Corporation, priority 1998, dated 2001).

One data set has as its target uPAR (Homo sapiens, UniProt Q03405). Particulars: Appella et al., J Biol Chem 1987.
The subject of data set [1] is osteosarcoma cell line, SaOS-2. The following applies: Rabbani et al.

Where no end group is shown, it is not given here. Fuc = fucose (fucosylation)

Chain of uPAR (Q03405 23-335): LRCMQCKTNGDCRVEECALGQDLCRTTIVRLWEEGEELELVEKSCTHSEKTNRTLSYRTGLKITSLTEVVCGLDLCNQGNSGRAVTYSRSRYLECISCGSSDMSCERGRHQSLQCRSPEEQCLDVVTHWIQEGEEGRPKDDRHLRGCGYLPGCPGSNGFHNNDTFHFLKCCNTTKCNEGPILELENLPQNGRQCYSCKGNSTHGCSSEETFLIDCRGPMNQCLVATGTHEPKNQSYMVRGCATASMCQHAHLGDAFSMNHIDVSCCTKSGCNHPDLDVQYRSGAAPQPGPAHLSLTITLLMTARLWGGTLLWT

Regarding “uPA12-32: critical receptor-binding domain alone, residues 12-32 of uPA (DCLNGGTCVSNKYFSNIHWCN; UniProt P00749 32-52, looked up, fragment)”, in the data set with uPAR, the “affinity relative to intact ATF (fold less)” value is recorded as “about 100 fold”.

Take “fucosylated EGF-like domain: fucosylated EGF-like domain (uPA4-43, produced by cleavage from prouPA) (LHQVPSNCDCLNGGT(Fuc)CVSNKYFSNIHWCNCPKKFGGQHCE; cysteine pairing not given here; UniProt P00749 24-63, looked up, fragment)”: in data set [1], the mitogenic activity result is “mitogenic”.
